Assay results reported in patent publication US9199028B2, “Use of entrained neutrophils to treat metastatic and micrometastatic disease in at risk patients” (MEMORIAL SLOAN-KETTERING CANCER CENTER, priority 2010, dated 2015).

Tests used:
[1] = test system: MDA-MB-231 cells; experiment: In vitro killing assay: human neutrophils co-cultured with luciferase labelled MDA-MB-231 cells; assay type: cell-based; conditions: naïve human neutrophils:tumor cells 1:1, chemokine 100 ng/ml (rhG-CSF 20 ng/ml), overnight
Text: Luciferase is under a constitutive promoter so cell death results in a decrease in luciferase activity because there is no transcription/translation of the lucierferase gene. The assay itself requires lysing of the cell to release the luciferase to mix with the luciferin and measure the luminescence. But it isn't that they dying cell releases luciferase. More signal means more luciferase which means more live cells. […]. […] Nave human neutrophils were co-cultured with MDA-MB-231 cells. […] Cells were seeded at a ratio of human neutrophils:human tumor cells=1:1.
Antibodies used for immunohistochemistry—MMP9, F4/80 and CCR2 (all from AbCam), Myeloperoxidase (Dako), Ly-6G and Cd11b (both from BD), and Cleaved Caspase 3 (Cell signalling). Antibodies used for western blotting—Actin (Sigma), CCL2 (AbCam) and CCL5 (R&D) p-SMAD2 (cell signalling). Antibodies used for FACS analysis FITC-Ly-6G, FITC-Cd11b, FITC-F4/80, FITC-Cd34 and FITC-c-Kit (all from BD) and VEGFR1-AP (R&D). Neutrophil Depletion Neutrophil depletion was achieved using daily IP injections of 12.5 μg Rat anti-Gr-1 antibody (BD) or Rat anti-Ly-6G antibody (BD) starting on day 3 post tumour engraftment. Starting on day 14, neutrophil depleting antibodies were administered twice daily. Control mice were injected with […] Rat isotype control (BD). Neutrophil depletion was monitored by manual blood differentials and FACS analysis. Flow Cytometry Peripheral blood was collected into EDTA-coated tubes, washed and resuspended in FACS buffer solution (PBS, 2% heat-inactivated FCS, 5 mM EDTA, and 0.02% sodium azide). The samples were blocked with […] and then incubated with fluorophore-conjugated antibodies. Erythrocytes were then lysed with FACS lysing solution (BD Biosciences) and the cell suspensions were analyzed on a FACSCalibur (BD Biosciences). Colony Formation Assay Female nude mice were orthotopically injected with 5×10^6 puromicin resistant 4T1 cells. On days 7 and 14 post tumour engraftment the mice were sacrificed and perfused with PBS. The lungs and livers were removed, washed with PBS and dissociated with Collagenase A (Roche). The single cell suspension was then plated onto puromicin containing media and selected for 14 day. Colonies were stained with Methylene-Blue and counted manually. Mouse Neutrophil Purification Whole blood was collected by cardiac puncture using heparinized (Sigma) syringe. The blood was diluted with 5 volumes of PBS containing 0.5% BSA and subjected to a discontinuous Histopaque (Sigma) gradient (1.077 and 1.119). Neutrophils were collected from the 1.077-1.119 interface, lymphocytes and monocytes collected from the plasma-1.077 interface. RBCs were eliminated by hypotonic lysis. The cells were washed twice with PBS-BSA and re-suspended in OptiMEM (Invitrogen) 0.5% FBS in a final concentration of 2×10^6 cells/ml. Neutrophil purity and viability were determined visually and were consistently >98%. Human Neutrophil Purification As part of a Memorial Sloan-Kettering Cancer Center institutionally approved protocol, blood samples (˜10 cc) were collected from healthy volunteers or from patients who were already having blood drawn for pre-surgical testing. Patients were consented accordingly as part of the approved protocol. […] Patients had either mastectomies or lumpectomies planned and had blood drawn prior to definitive surgical removal of their primary tumor or chemotherapy. Blood samples were transferred to the lab for analysis no more than 1 hour post-blood draw. Heparinzed blood (20 U/ml final) was mixed with an equal volume of Dextran 500 (3% in saline) and incubated 30 minutes at room temperature. The leukocyte-rich supernatant was layered on top of histopaque 1077 (Sigma) and centrifuged. Neutrophils, collected in the pellet fraction, were resuspended in 10 ml 0.2% NaCl for 30 seconds to remove contaminating erythrocytes. Isotonicity was restored by the addition of 10 ml 1.6% NaCl. […]

[2] = test system: 4T1 cells; experiment: In vivo stimulation of neutrophils with chemokines, purified neutrophils co-cultured with 4T1 cells; assay type: cell-based, mouse; conditions: healthy mice treated in vivo with G-CSF alone or G-CSF plus chemokine
Protocol: A. To test which chemokines may participate in the stimulation of neutrophils, neutrophils purified from healthy mice were co-culture with luciferase labeled 4T1 cells in the presence (20 ng/ml of chemokine) or absence of certain chemokines for an overnight incubation. […] B. To test which chemokines are sufficient for in vivo stimulation of neutrophils healthy mice were treated with G-CSF (to boost neutrophil numbers) and either CCL2, CCL5 or CXCL1. Control mice were treated with G-CSF alone. Neutrophils were purified from these mice and co-cultured with Luciferase-labeled 4T1 cells. […] Conclusion—CCL2 and to a lesser degree CCL5 can stimulate tumor cell killing both in vitro and in vivo.

B1: rhG-CSF: recombinant methionyl human granulocyte colony-stimulating factor (Neupogen, Amgen) (protein, chains of the INN, looked up)
chain: MTPLGPASSLPQSFLLKCLEQVRKIQGDGAALQEKLCATYKLCHPEELVLLGHSLGIPWAPLSSCPSQALQLAGCLSQLHSGLFLYQGLLQALEGISPELGPTLDTLQLDVADFATTIWQQMEELGMAPALQPTQGAMPAFASAFQRRAGGVLVASHLQSFLEVSYRVLRHLAQP
modifications: N-terminal methionine
neutrophil cytotoxicity / neutrophil mediated killing of MDA-MB-231 cells [1]: does not induce neutrophil mediated cell killing
viability of 4T1 cells co-cultured with neutrophils purified from chemokine treated mice [2]: did not induce a reduction in cell viability
